{"source": "patent US20080089931", "molecular_target": "EphA2 receptor tyrosine kinase (UniProt P29317)", "sequence (P29317 whole entry, looked up)": "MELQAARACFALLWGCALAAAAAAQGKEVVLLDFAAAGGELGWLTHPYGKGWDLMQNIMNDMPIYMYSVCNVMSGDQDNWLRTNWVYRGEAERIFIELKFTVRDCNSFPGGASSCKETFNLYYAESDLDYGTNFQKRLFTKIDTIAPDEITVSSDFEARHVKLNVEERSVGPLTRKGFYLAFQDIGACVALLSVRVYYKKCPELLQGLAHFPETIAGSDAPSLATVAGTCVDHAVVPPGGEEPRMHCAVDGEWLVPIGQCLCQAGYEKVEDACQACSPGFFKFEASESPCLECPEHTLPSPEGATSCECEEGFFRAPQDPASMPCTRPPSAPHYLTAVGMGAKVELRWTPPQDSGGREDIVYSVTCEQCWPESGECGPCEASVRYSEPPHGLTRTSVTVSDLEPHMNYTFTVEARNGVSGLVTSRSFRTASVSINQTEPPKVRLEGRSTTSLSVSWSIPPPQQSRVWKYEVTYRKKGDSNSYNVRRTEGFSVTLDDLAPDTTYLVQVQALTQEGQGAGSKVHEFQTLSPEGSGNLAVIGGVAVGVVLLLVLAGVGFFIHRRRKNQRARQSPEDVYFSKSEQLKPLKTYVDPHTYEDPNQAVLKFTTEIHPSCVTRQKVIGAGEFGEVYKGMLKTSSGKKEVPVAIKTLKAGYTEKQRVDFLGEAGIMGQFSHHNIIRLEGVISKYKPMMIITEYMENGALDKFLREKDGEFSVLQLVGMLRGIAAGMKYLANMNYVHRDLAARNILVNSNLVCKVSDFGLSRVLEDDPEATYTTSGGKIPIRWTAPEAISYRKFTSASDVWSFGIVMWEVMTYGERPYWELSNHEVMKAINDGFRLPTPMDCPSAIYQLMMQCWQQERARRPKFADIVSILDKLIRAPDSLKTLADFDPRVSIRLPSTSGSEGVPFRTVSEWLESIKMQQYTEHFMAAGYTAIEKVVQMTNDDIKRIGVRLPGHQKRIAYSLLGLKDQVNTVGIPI"}
{"substance": "purified LMW-PTP protein", "values": [{"measurement": "dephosphorylation of immunoprecipitated EphA2 (phosphotyrosine Western blot)", "result": "the LMW-PTP dephosphorylated EphA2 in an enzyme concentration-dependent and a time-dependent manner"}]}
